The target in assay [1] is His-tagged human FcγRIIIa (V158 allotype), extracellular domain (amino acids 17-208) (human) (UniProt P08637). The assay is described as follows: SPR; Biacore T200; His-tagged FcγRIIIa captured (40 RU) by anti-His antibody on a CM5 chip; Rituxan flowed over, HEPES-EP running buffer; KD from steady state; three independent runs.
Assay [2] shares this target. The assay is described as follows: SPR. A general note: SPR reads the build-up and loss of mass on a sensor chip optically.
For assay [3], the target named is His-tagged human FcγRIIIa (F158 allotype), extracellular domain (amino acids 17-208) (human) (UniProt P08637). Description: SPR.

The values that follow come from publication PMC10442823.

As usually defined, the Kd is the constant that tells how readily two partners part at equilibrium.

Regarding “mammalian cell produced rituximab (Rituxan) (antibody)”, the equilibrium dissociation constant (Kd) in assay [1] was determined as 263 nM. In other words, the sub-micromolar range.

Regarding “rituximab (Rx), plant-produced, expressed alone”, the results for the dissociation constant Kd in assay [2] and in assay [3] were 18 nM and 66.6 nM, respectively.

On to “rituximab (Rx), plant-produced, co-expressed with LmSTT3D”, for which the Kd amounted to 12 nM in assay [2] and 54.4 nM in assay [3].

The substance “mammalian cell produced rituximab (Rituxan)” yielded a Kd in assay [2] of 262 nM.

Consider “rituximab (Rx), plant-produced, co-expressed with LdOST”, for which the equilibrium dissociation constant (Kd) in assay [2] worked out at 13 nM; in assay [3], 50.1 nM.
